From the nanobody polyreactivity screen of Harvey et al. (2022)

Experiment: yeast display, Sf9 membrane polyspecificity reagent, FACS + sequencing; frameworks hold sequencing errors
How it was run: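 In a synthetic yeast display library (Saccharomyces cerevisiae BJ5465), nanobody expression was induced with galactose for 36–48 hours. FACS gates were set low and high (top ~1%) using anti-HA fluorescence for expression and streptavidin fluorescence for binding of the Sf9 membrane reagent. Each polyreactivity label is drawn from the gate of origin.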

With “QVQLVESGGGLVQSGGSLRLSCAASGITFFEYAMGWYRQAPGKERELVAVITSGGSTNYADSVKGRFTISRDNAKNTVYLQMNSLKPEDTAVYYCNALVVKYRWWYDYYYWGQGTQVTVSS” as the sequence, how does the “polyreactivity (PSR sort gate)” value read?
Its value is “low polyreactivity”.

For “QVQLVESGGGLVQSGGSLRLSCAASGRIIIRYAMGWYIQEPGKERELVAAISKNGGTTYYADSVKGRFTISRDNAKYTVYLQMNSLKPVDTAVYYGAKRLVSRGRTYAYPEYDYWGQGTQVTVSS”, which “polyreactivity (PSR sort gate)” value is on record?
The value was “high polyreactivity”.

For “QVQLVESGGGLVQSGGSLRLSCAASGRTYDSYAMGWYRPAPGKERELVAVISRSGRTYYADSVKGRFTISRDNAKNTVYLQMNSLKPEDTAVYYCAAKWFRTWSGYWGQGSQVTVSS”, which “polyreactivity (PSR sort gate)” value is on record?
Its value is “high polyreactivity”.

With “QVQLVESGGGLVQSGGSLRLSCAASGSIFIGNTMGWYRQAPGKERELVATIRRSGSRTYYADSVKGRFTISRDNAKHTVYLQMNSLKPEDTAVYYCAAVRLRTSGYKTIYDYWGQGTQVTVSS” as the sequence, how does the “polyreactivity (PSR sort gate)” value read?
Its value is “low polyreactivity”.

Which “polyreactivity (PSR sort gate)” value does the source give for “QVQLVESGGGLVQSGGSLRLSCAASGSIFYLYAMGWYRQAPGKERELVAAISWTGGSSYYADSVKGRFTISRDNAKNTVYLQMNSLKPEDTAVYYCAADRVLGGPQPGGSSFRGDYWGQGTQVTVSS” here?
Its value is “low polyreactivity”.

For “QVQLVESGGGLVQSGGSLRLSCAASGSILKFNAMVWYRQAPGKERELVAAITRGTNTYYADSVKGRFTISRDNAKNTVYLQMNSLKPEDTAVYYCAARLPYNAIGYYYWGQGTQVTVSS”, which “polyreactivity (PSR sort gate)” value is on record?
The value was “low polyreactivity”.

For “QVQLVESGGGLVQSGGSLRLSCAASGSTFNYYAMGWYRQAPGKERELVAVINKSGGRTNYADSVKGRFTISRDNAKNTVYLQMNSLKPEDTAVYYCNKVTRREGSYGYPSRYEYWGQGTQVTVSS”, which “polyreactivity (PSR sort gate)” value is on record?
The value was “high polyreactivity”.

For “QVQLVESGGGLVQSGGSLRLSCAASGSTFSRYVMGSYRQAPGKERELVAAITNTGSTYYADSVKGRFTISRDNAKNTVYLQMNSLKPEDTAVYYCAATQYRSDGWRYDYWGQGTQVTVSS”, which “polyreactivity (PSR sort gate)” value is on record?
Its value is “high polyreactivity”.

Which “polyreactivity (PSR sort gate)” value does the source give for “QVQLVESGGGLVQSGGSLRLSCAASGSTLIGNAMGWYRQAPGKERELVAAISSGGRTYYADSVKGRFTISRDNAKNTVYLQMNSLKPEDTAVYYCAADTVGTNVVSPELDYWGQGTQVTVSS” here?
The value was “low polyreactivity”.

For “QVQLVESGGGLVQSGGSLRLSCAASGYIFGYYAMGWYRQAPGKERELVAAITGTDDTYYADSVKGRFTISRDNAKNTVYLQMNSLKPEDTAVYYCAAYSWWNEYDYWGQGTQVTVSS”, which “polyreactivity (PSR sort gate)” value is on record?
The value was “high polyreactivity”.

For “QVQLVESGGGLVQSGGSLRLSCAASGYIIPRYAMGWYIHAPGKERELVAGITTGVRTNYADSVKGRFTISRDNAKNSVYLQMNSLKPGDTAVYYCNARYFRYRYNRYDYWGQGTQVTVSS”, which “polyreactivity (PSR sort gate)” value is on record?
The value was “high polyreactivity”.

For “QVQLVESGGGLVQSGGSLRLSCAASGYIVRNAMGWYRQAPVKERELVAAITWSGGSTYYADSVKGRFTISRDNAKNTVYLQMNSLKPEDTAVYYCNARRNVRQTFGYEYWGQGTQVTVSS”, which “polyreactivity (PSR sort gate)” value is on record?
Its value is “high polyreactivity”.

Which “polyreactivity (PSR sort gate)” value does the source give for “QVQLVESGGGLVQSGGSLRLSSASSGRTFSGYVMGWYRQAPGKEREFVAVISRGGSTYYADSVKGRFTISRDNAKNTVYLQMNSLKPEDTAVYYCAGRLTYTGGQGAYDYWGQGTQVTVSS” here?
The value was “high polyreactivity”.

For “QVQLVESGGGLVQSGGSLRLTCAASGFIFHKYVMGWYSPAPGKEREMVAAISRSGASTYYADSVKGRFTISRDNAKNTVYLQMNSLKPEDTAVYYCAKDYQTYSGSSDFDYWGQGSQVTVSS”, which “polyreactivity (PSR sort gate)” value is on record?
The value was “high polyreactivity”.

With “QVQLVESGGGLVQSGGSLRLTCAASGSILWYNGMGWYSQAPGKERELVAAITSGGSTNYADSVKGRFTISRDNAKNTFYLHMNSLKPEDTEVYYCKARPYWFGSYGYWGQGTKVTVSS” as the sequence, how does the “polyreactivity (PSR sort gate)” value read?
The value was “low polyreactivity”.

Which “polyreactivity (PSR sort gate)” value does the source give for “QVQLVESGGGLVQSRGSLSLICAASGRTYRTYTMGWYRQSPGKERQFVAAIDRTGGSTYYADSVKGRFTISRDNAKNTVYLQMNSLKPEDTAVYYCAATASYIYWGKIYGYDYWGQGTQVTVSS” here?
The value was “high polyreactivity”.

Which “polyreactivity (PSR sort gate)” value does the source give for “QVQLVESGGGLVQTGGSLRLSCAASGFNFYINAMGWYRQAPVKERELVAAINWRTGSTYYADSVKGRFTISRDNAKNTVYLQMNSLKQEDTAVYYCAAYGYWRRADTEFDYWGQGTQVTVSS” here?
The value was “low polyreactivity”.

With “QVQLVESGGGLVQTGGSLRVSCAASGLIFSRSAMGWYRQAPGKVRELVAAISSRGGSTYYADSVKGRFTISRDNAKNTVYLQMKSLIPEDTAVYFCDASRSYVHPVIGYGYWGQGTQVTVSS” as the sequence, how does the “polyreactivity (PSR sort gate)” value read?
The value was “high polyreactivity”.

For “QVQLVESGGGLVQVGGILLLSCAASGFTFYDYAMGWYRQAPGKERELVAAISRGGSTYYADSVKGRFTISRDNAKNTVNLQMNSLKPEDTAVYYCNARPTRIYHGMVYWGQGTQVTVSS”, which “polyreactivity (PSR sort gate)” value is on record?
The value was “low polyreactivity”.

With “QVQLVESGGGLYQAGGSLRLSCAASGRIFATNAMRWSRQAPGKERELVATITRSAGRTYYADSVKGRFTISRDNAKNTVYLQMNSLKPEDTAVYYCAASYWDTEPGYREYDYWGQGTQVTVSS” as the sequence, how does the “polyreactivity (PSR sort gate)” value read?
Its value is “low polyreactivity”.

With “QVQLVESGGGSVQAGGSLRLSCAASGFTIRTYAMGWYRQAPGKESELVAAITSSGSSTYYAYSVKGRFTISRDNAKNTVYLQMNSLKPEDTAVYYCAADAPRSYRFGYWGQGTQVTVSS” as the sequence, how does the “polyreactivity (PSR sort gate)” value read?
Its value is “high polyreactivity”.

With “QVQLVESGGGVDQAGGSLRLSCAASGLSLRVNVMGWYRPAPGKERELVAAISGGGRTYYADSVKGRFTISRDNAKNTVYLQMNSLKPEDTAVYYCATVRRRLSLTYDYWGQGTQVTVSS” as the sequence, how does the “polyreactivity (PSR sort gate)” value read?
Its value is “high polyreactivity”.

Which “polyreactivity (PSR sort gate)” value does the source give for “QVQLVESGGGVQAGGSLRLSCAASGRTFVPYAMGWYRQAPGKERELVAAISSIGDSTSYADSVKGRFTISRDNAKNTVYLQMNCLKPEDTAVYYFAAAEDRDRLVPKLDYWGQGTQVTVSS” here?
Its value is “low polyreactivity”.

With “QVQLVESGGGVVQAGGSLRLSCAASGFIFEYYPMGWYRPAPGKERELVAAISWSGGSTYYADSVKGRFTISRDNAKNTVYLQMNSLKPEDTAVYYCAAGRYFHHPTSYYYWGQGTQVTVSS” as the sequence, how does the “polyreactivity (PSR sort gate)” value read?
Its value is “high polyreactivity”.

For “QVQLVESGGGVVQAGGSLRLSCAASGFIFYQYAMGWYRQAPGKERELVAAITSRGGRTYYADSVKGRFTISRDNAKNTVYLQMNSLKPEDTAVYYCAVRKASDYYYWGQGTQVTVSS”, which “polyreactivity (PSR sort gate)” value is on record?
The value was “high polyreactivity”.

With “QVQLVESGGGVVQAGGSLRLSCAASGFTFVRYTMGWYRQAPGKERELVAAITKRGGSTYYADSVKGRFTISRDNAKNTVYLQMNSLKPEDTAVYYCAAAVGNTDREYDYWGQGTQVTVSS” as the sequence, how does the “polyreactivity (PSR sort gate)” value read?
Its value is “low polyreactivity”.

For “QVQLVESGGGVVQAGGSLRLSCAASGIIFYRYAMGWYRQAPGKERELVARITNGGNTYYADSVKGRFTISRDNAKNTVYLQMNSLKPEDTAVYYCAVRVFGYSPYSNWMYYWGQGTQVTVSS”, which “polyreactivity (PSR sort gate)” value is on record?
Its value is “high polyreactivity”.

Which “polyreactivity (PSR sort gate)” value does the source give for “QVQLVESGGGVVQAGGSLRLSCAASGITFTVNAIGWYRQAPGKDREFFAAITYSGGNTYYADSVKGRFTISRDNAKNTVYLQMNSLTPEDTAVYYCNSDSAVGIVGARFFYDYWGQGTQVTVSS” here?
The value was “low polyreactivity”.

Which “polyreactivity (PSR sort gate)” value does the source give for “QVQLVESGGGVVQAGGSLRLSCAASGITLAWYAMGWSRQAPGKERELVAAINSGGSTYYADSVKGRFTISRDTAKNTVYLQMNSLKPEDTAVYYCNTDDDSSSTGYYSWGQGTQVTVSS” here?
Its value is “low polyreactivity”.

Which “polyreactivity (PSR sort gate)” value does the source give for “QVQLVESGGGVVQAGGSLRLSCAASGITYGRNTMGWYIHAPGKERELVAAIDSGGNTYADSVKGRFTISRDNAKNTVYLQMNSLKPEDTAVYYGAATFIQVVVNVQLYDYDYWGQGTQVNVSS” here?
Its value is “low polyreactivity”.

Which “polyreactivity (PSR sort gate)” value does the source give for “QVQLVESGGGVVQAGGSLRLSCAASGLIFRRYAMGWSRQAPGIDRELVAAISGNGGSTYYADSVKGRFTISRDNAKNTVYVQMTCLKPEDTAVYYCAARSLGIYNYWGQGTQVTVSS” here?
The value was “high polyreactivity”.

For “QVQLVESGGGVVQAGGSLRLSCAASGRIFPYNAMGWYRQAPGKERELVAAISSGGSTTYADSVKGRFTISRDNAKNTVYLHMNSLKPEDTAVYYCAREVYRHYAPVGYDYWGQGTQVTVSS”, which “polyreactivity (PSR sort gate)” value is on record?
The value was “high polyreactivity”.

For “QVQLVESGGGVVQAGGSLRLSCAASGRIFRYYAMGWYRQAPGKERELVAGITTGGGSTYYADSVKGRFTISRDNAKNTVYLQMNSLKPEDTAVYYCAARYYTTFYWGQGTQVTVSS”, which “polyreactivity (PSR sort gate)” value is on record?
The value was “high polyreactivity”.

Which “polyreactivity (PSR sort gate)” value does the source give for “QVQLVESGGGVVQAGGSLRLSCAASGRIFSVYAMVWYRQAPGKEREFVGSISWRGGRTYYADSVKGRFTISRDNAKNTVYLQMISLKPEDTAVYYCAAVSYPAVYGFDYWGQGTQVTVSS” here?
The value was “high polyreactivity”.

For “QVQLVESGGGVVQAGGSLRLSCAASGRTFCIYAMGWYRPAPGKEREVVAAITGRGGSTHYADSVKGRFTISRDNAKNTVYLQMNSLKPEDTAVYYGAADYRYNRGITSNKDYDYWGQGTQVTVSS”, which “polyreactivity (PSR sort gate)” value is on record?
Its value is “low polyreactivity”.

With “QVQLVESGGGVVQAGGSLRLSCAASGRTFGWNTMGWYRQAPGKERELVAAISYSTGRTYYADSVKGRFTISRDNAKYTVYLQMNSLKPEDTAVYYCAATRPYRYNYWGQGTQVTVSS” as the sequence, how does the “polyreactivity (PSR sort gate)” value read?
Its value is “high polyreactivity”.

For “QVQLVESGGGVVQAGGSLRLSCAASGRTFRRNAMGWYRQAPGKERELVAAITSSGGSTYYADSVKGRFTISRDNAKNTVYFQMNSLKPEDTEVYYCNAFYTGRSAPDSWGQGTQVTVSS”, which “polyreactivity (PSR sort gate)” value is on record?
Its value is “high polyreactivity”.

Which “polyreactivity (PSR sort gate)” value does the source give for “QVQLVESGGGVVQAGGSLRLSCAASGSHFISNAMGWYRQAPGKERELVAAITSSGGSTYYADSVKGRFTISRDNAKNTVYLQMNSLKPEVTAVYYCAARPGRNYYYWGQGTQVTVSS” here?
Its value is “high polyreactivity”.

Which “polyreactivity (PSR sort gate)” value does the source give for “QVQLVESGGGVVQAGGSLRLSCAASGSIFNRYAMGWYRQAPGKERELVAATSSGGSTYYADSVKGRFTISRDNAKNTVYLQMNSLKPEDTAVYYCAARSRYRSTPPTYDYWGQGTQVTVSS” here?
The value was “low polyreactivity”.

For “QVQLVESGGGVVQAGGSLRLSCAASGSIFRRNAMGWYRQAPGKERELVAAISWTTGSTYYADSVKGRFTISRDNAKNTVYLLMNSLKAEDTSVYYCAAVIRSRYSYYEYDFWGQGTKVTVSS”, which “polyreactivity (PSR sort gate)” value is on record?
The value was “high polyreactivity”.

For “QVQLVESGGGVVQAGGSLRLSCAASGSTFTTNAMGWYRQAPGKDREFVAAIRRTSGRTYYADSVKGRFTISRDNAKNTVYLQMNSLKPEDTAVFYCATDSYSPYGLKSRYDYWGQGTQVTVSS”, which “polyreactivity (PSR sort gate)” value is on record?
The value was “high polyreactivity”.
